Results reported in IntAct's records for PubMed 20679240.

B1: Circadian clock oscillator protein KaiC (Synechococcus elongatus (strain PCC 7942)), Q79PF4 (parent)
chain: MTSAEMTSPNNNSEHQAIAKMRTMIEGFDDISHGGLPIGRSTLVSGTSGTGKTLFSIQFLYNGIIEFDEPGVFVTFEETPQDIIKNARSFGWDLAKLVDEGKLFILDASPDPEGQEVVGGFDLSALIERINYAIQKYRARRVSIDSVTSVFQQYDASSVVRRELFRLVARLKQIGATTVMTTERIEEYGPIARYGVEEFVSDNVVILRNVLEGERRRRTLEILKLRGTSHMKGEYPFTITDHGINIFPLGAMRLTQRSSNVRVSSGVVRLDEMCGGGFFKDSIILATGATGTGKTLLVSRFVENACANKERAILFAYEESRAQLLRNAYSWGMDFEEMERQNLLKIVCAYPESAGLEDHLQIIKSEINDFKPARIAIDSLSALARGVSNNAFRQFVIGVTGYAKQEEITGLFTNTSDQFMGAHSITDSHISTITDTIILLQYVEIRGEMSRAINVFKMRGSWHDKAIREFMISDKGPDIKDSFRNFERIISGSPTRITVDEKSELSRIVRGVQEKGPES
partner: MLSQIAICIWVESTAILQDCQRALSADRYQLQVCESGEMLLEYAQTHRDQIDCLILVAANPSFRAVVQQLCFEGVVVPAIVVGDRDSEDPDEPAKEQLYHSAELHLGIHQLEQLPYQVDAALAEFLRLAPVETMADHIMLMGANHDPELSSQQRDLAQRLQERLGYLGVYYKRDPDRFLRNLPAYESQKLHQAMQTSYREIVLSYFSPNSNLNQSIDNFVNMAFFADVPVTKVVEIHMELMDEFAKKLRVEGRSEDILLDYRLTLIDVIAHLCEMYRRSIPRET
B2: Circadian clock oscillator protein KaiC (Synechococcus elongatus (strain PCC 7942)), Q79PF4 (parent)
chain: B1 chain
partner: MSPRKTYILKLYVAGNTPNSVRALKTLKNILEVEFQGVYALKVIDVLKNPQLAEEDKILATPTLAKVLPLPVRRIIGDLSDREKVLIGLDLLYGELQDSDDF

Variants of: B1
Settings: with kaia_syne7 kaiA

Question: How did the “effect of a mutation on the interaction” value turn out when S431A;T432A was run?
Answer: decreasing interaction strength

Question: Which “effect of a mutation on the interaction” value does the source give for S431E;T432E here?
Answer: increasing interaction strength

Variants of: B2
Settings: with kaib_syne7 kaiB

Question: Which “effect of a mutation on the interaction” value does the source give for S431A here?
Answer: disrupting interaction strength

Question: With S431A;T432A as the variant, how does the “effect of a mutation on the interaction” value read?
Answer: disrupting interaction strength

Question: With S431A;T432E as the variant, how does the “effect of a mutation on the interaction” value read?
Answer: disrupting interaction strength

Question: For S431D;T432A, which “effect of a mutation on the interaction” value is on record?
Answer: disrupting interaction strength
